Data: US12303551B2, “Cellular immunotherapy compositions and uses thereof” (CERO THERPEUTICS HOLDINGS, INC., priority 2018, dated 2025)

B1: CER104: Chimeric engulfment receptor: Tim4 binding, Tim4 transmembrane, TLR8 and DAP12 signaling; SEQ ID NO: 139 (protein)
chain: MSKGLLLLWLVTELWWLYLTPAASEDTIIGFLGQPVTLPCHYLSWSQSRNSMCWGKGSCPNSKCNAELLRTDGTRIISRKSTKYTLLGKVQFGEVSLTISNTNRGDSGVYCCRIEVPGWFNDVKKNVRLELRRATTTKKPTTTTRPTTTPYVTTTTPELLPTTVMTTSVLPTTTPPQTLATTAFSTAVTTCPSTTPGSFSQETTKGSAFTTESETLPASNHSQRSMMTISTDIAVLRPTGSNPGILPSTSQLTTQKTTLTTSESLQKTTKSHQINSRQTILIIACCVGFVLMVLLFLAFLHHLFYWDVWFIYNVCLAKVKGYRSLSTSQTFYDAYISYDTKDASVTDWVINELRYHLEESRDKNVLLCLEERDWDPGLAIIDNLMQSINQSKKTVFVLTKKYAKSWNFKTAFYLALQRLMDENMDVIIFILLEPVLQHSQYLRLRQRICKSSILQWPDNPKAEGLFWQTLRNVVLTENDSRYNNMYVDSIKQYYFLGRLVPRGRGAAEAATRKQRITETESPYQELQGQRSDVYSDLNTQRPYYK
modifications: CER104, amino acids 1-22 are signal peptide
B2: CER116: Chimeric engulfment receptor: Tim4 binding, Tim4 transmembrane, TRAF6 and TLR8 signaling; SEQ ID NO: 152 (protein)
chain: MSKGLLLLWLVTELWWLYLTPAASEDTIIGFLGQPVTLPCHYLSWSQSRNSMCWGKGSCPNSKCNAELLRTDGTRIISRKSTKYTLLGKVQFGEVSLTISNTNRGDSGVYCCRIEVPGWFNDVKKNVRLELRRATTTKKPTTTTRPTTTPYVTTTTPELLPTTVMTTSVLPTTTPPQTLATTAFSTAVTTCPSTTPGSFSQETTKGSAFTTESETLPASNHSQRSMMTISTDIAVLRPTGSNPGILPSTSQLTTQKTTLTTSESLQKTTKSHQINSRQTILIIACCVGFVLMVLLFLAFLMSLLNCENSCGSSQSESDCCVAMASSCSAVTKDDSVGGTASTGNLSSSFMEEIQGYDVEFDPPLESKYECPICLMALREAVQTPCGHRFCKACIIKSIRDAGHKCPVDNEILLENQLFPDNFAKREILSLMVKCPNEGCLHKMELRHLEDHQAHCEFALMDCPQCQRPFQKFHINIHILKDCPRRQVSCDNCAASMAFEDKEIHDQNCPLANVICEYCNTILIREQMPNHYDLDCPTAPIPCTFSTFGCHEKMQRNHLARHLQENTQSHMRMLAHHLFYWDVWFIYNVCLAKVKGYRSLSTSQTFYDAYISYDTKDASVTDWVINELRYHLEESRDKNVLLCLEERDWDPGLAIIDNLMQSINQSKKTVFVLTKKYAKSWNFKTAFYLALQRLMDENMDVIIFILLEPVLQHSQYLRLRQRICKSSILQWPDNPKAEGLFWQTLRNVVLTENDSRYNNMYVDSIKQY
modifications: CER116, amino acids 1-22 are signal peptide
B3: CER117: Chimeric engulfment receptor: Tim4 binding, Tim4 transmembrane, TLR8 and TRAF6 signaling; SEQ ID NO: 153 (protein)
chain: MSKGLLLLWLVTELWWLYLTPAASEDTIIGFLGQPVTLPCHYLSWSQSRNSMCWGKGSCPNSKCNAELLRTDGTRIISRKSTKYTLLGKVQFGEVSLTISNTNRGDSGVYCCRIEVPGWFNDVKKNVRLELRRATTTKKPTTTTRPTTTPYVTTTTPELLPTTVMTTSVLPTTTPPQTLATTAFSTAVTTCPSTTPGSFSQETTKGSAFTTESETLPASNHSQRSMMTISTDIAVLRPTGSNPGILPSTSQLTTQKTTLTTSESLQKTTKSHQINSRQTILIIACCVGFVLMVLLFLAFLHHLFYWDVWFIYNVCLAKVKGYRSLSTSQTFYDAYISYDTKDASVTDWVINELRYHLEESRDKNVLLCLEERDWDPGLAIIDNLMQSINQSKKTVFVLTKKYAKSWNFKTAFYLALQRLMDENMDVIIFILLEPVLQHSQYLRLRQRICKSSILQWPDNPKAEGLFWQTLRNVVLTENDSRYNNMYVDSIKQYMSLLNCENSCGSSQSESDCCVAMASSCSAVTKDDSVGGTASTGNLSSSFMEEIQGYDVEFDPPLESKYECPICLMALREAVQTPCGHRFCKACIIKSIRDAGHKCPVDNEILLENQLFPDNFAKREILSLMVKCPNEGCLHKMELRHLEDHQAHCEFALMDCPQCQRPFQKFHINIHILKDCPRRQVSCDNCAASMAFEDKEIHDQNCPLANVICEYCNTILIREQMPNHYDLDCPTAPIPCTFSTFGCHEKMQRNHLARHLQENTQSHMRMLA
modifications: CER117, amino acids 1-22 are signal peptide

Test system: SCC152 cells
Assay: Elimination of GFP-expressing SCC152 target cells over time (quantification and time lapse imaging)
Assay type: cell-based
Conditions: for number of SCC152 cells in time lapse imaging: 96-well co-culture, CD8+/E7 TCR + CD4+/CER + SCC152 1:1:1, compared to control; for elimination of SCC152 cells, time lapse imaging: 0 to 36 hrs, compared to the control; for elimination of SCC152 cells (GFP quantification): by 36 hrs, 1:1:1 ratio (CD8:CD4:target cell), compared to control
Procedure, shortened: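 GFP-labelled SCC152 (HPV16+) target cells were co-cultured at 1:1:1 with CD8+ T cells carrying an HPV16 E7 TCR and with CD4+ T cells transduced with a chimeric CER or a control. Remaining target cells were counted by fluorescence imaging and automated software at 0, 12, 24, 36 h or 0, 24, 48 h.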

Row | Molecule | number of SCC152 cells in time lapse imaging | elimination of SCC152 cells, time lapse imaging | elimination of SCC152 cells (GFP quantification)
1 | B1 | decreasing in numbers over time |  | 
2 | B2 | decreasing in numbers over time | enhanced elimination of SCC152 cells | nearly complete elimination
3 | B3 |  | enhanced elimination of SCC152 cells | nearly complete elimination
